Results on five substances are retold here after article PMC6028098, “The N-terminal region of photocleavable peptides that bind HLA-DR1 determines the kinetics of fragment release” (PLoS ONE, 2018).

In general, IC50 refers to the point on the concentration scale where inhibition reaches its midpoint.

This assay has as its target HLA-DR1 (DRA*01:01/DRB1*01:01) extracellular domain (human). The assay can be described thus: fluorescence polarisation. For orientation: Fluorescence polarisation rises when a labelled molecule tumbles more slowly, as on binding a larger partner.
The substance “Ac-photoHA photocleavable peptide (Ac-PRYVKxNTLRLAT)” showed an IC50 of 0.134 µM.

“Ac-photoHAΔ1–2 photocleavable peptide (Ac-YVKxNTLRLAT)”: the half-maximal inhibitory concentration (IC50) was determined as 0.227 µM. For the substance “HA peptide (unlabeled, non-photocleavable), HA306-318-derived”, the IC50 stood at 0.04 µM. “photoHA photocleavable peptide (PRYVKxNTLRLAT)” came in with an IC50 of 0.092 µM. Compared with the last substance, the IC50 is about 2.3-fold higher. Under “photoHAΔ1–2 photocleavable peptide (YVKxNTLRLAT)” stands 1.04 µM.
